Read-outs that look alike come from different tables or passages of the source. Each block holds one binder with its values, some of them ahead of it.
Tests used:
BMP6 [1] = biological target: T1, BMP6 (UniProt P22004 382-513, limits assumed); test: Biacore SPR
T1 sequence (looked up): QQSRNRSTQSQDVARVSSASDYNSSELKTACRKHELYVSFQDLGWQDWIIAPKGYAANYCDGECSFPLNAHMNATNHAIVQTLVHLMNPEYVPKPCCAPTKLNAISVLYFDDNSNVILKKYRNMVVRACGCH

BMP15 [2] = biological target: T2, BMP15 (UniProt O95972 268-392); test: Biacore SPR
T2 construct: also called GDF9b
T2 sequence (looked up): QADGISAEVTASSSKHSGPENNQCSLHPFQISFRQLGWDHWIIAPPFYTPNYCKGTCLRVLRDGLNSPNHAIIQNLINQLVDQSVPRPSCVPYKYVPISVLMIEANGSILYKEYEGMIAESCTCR
Procedure: (§1) Ligands were injected and allowed to flow over the captured receptor protein.

BMP2 = BMP2 (UniProt P12643 283-396); test: Biacore SPR
Chain of BMP2 (P12643 283-396 limits assumed): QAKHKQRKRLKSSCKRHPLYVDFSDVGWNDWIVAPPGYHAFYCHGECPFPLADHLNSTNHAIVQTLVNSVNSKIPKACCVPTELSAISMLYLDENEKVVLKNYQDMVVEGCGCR
Procedure: as §1

GDF6 = biological target: T3, GDF6 (UniProt Q6KF10 336-455, limits assumed); test: Biacore SPR
T3 construct: also called BMP13
T3 sequence (looked up): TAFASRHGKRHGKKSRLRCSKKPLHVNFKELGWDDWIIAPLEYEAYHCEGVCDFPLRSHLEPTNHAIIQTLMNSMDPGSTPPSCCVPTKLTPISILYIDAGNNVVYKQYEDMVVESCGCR
Procedure: as §1

BMP10 [3] = biological target: T4, BMP10 (UniProt O95393 317-424); test: Biacore SPR
T4 sequence (looked up): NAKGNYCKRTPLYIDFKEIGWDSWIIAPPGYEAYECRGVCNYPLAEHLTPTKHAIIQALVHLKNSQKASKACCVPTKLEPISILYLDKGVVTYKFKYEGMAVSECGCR
Procedure: as §1

BMP7 [4] = biological target: T5, BMP7 (UniProt P18075 293-431); test: Biacore SPR
T5 sequence (looked up): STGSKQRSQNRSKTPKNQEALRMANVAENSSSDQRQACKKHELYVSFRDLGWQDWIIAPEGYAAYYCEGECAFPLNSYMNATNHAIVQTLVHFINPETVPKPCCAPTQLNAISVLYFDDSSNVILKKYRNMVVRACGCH
Procedure: as §1

BMP4 = biological target: T6, BMP4 (UniProt P12644 293-408); test: Biacore SPR
T6 sequence (looked up): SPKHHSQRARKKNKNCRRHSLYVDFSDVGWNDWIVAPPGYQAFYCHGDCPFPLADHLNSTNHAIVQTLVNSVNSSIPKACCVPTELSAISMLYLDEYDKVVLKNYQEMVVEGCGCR
Procedure: as §1

BMP9 [5] = biological target: T7, BMP9 (UniProt Q9UK05 320-429); test: Biacore SPR
T7 construct: also called GDF2
T7 sequence (looked up): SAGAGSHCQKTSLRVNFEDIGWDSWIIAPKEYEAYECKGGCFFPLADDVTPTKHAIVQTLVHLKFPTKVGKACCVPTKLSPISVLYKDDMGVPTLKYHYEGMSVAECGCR
Procedure: as §1

BMP5 = biological target: T8, BMP5 (UniProt P22003 317-454, limits assumed); test: Biacore SPR
T8 sequence (looked up): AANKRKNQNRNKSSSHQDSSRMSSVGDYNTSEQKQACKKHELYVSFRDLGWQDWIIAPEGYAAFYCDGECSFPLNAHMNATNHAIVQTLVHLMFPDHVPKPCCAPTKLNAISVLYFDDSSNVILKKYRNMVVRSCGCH
Procedure: as §1

BMP6 [6] = biological target: T1, BMP6; test: Biacore SPR; remark: listed apart in the source
Procedure: as §1

activin B = biological target: T9, activin B (UniProt P09529 293-407); test: Biacore SPR
T9 sequence (looked up): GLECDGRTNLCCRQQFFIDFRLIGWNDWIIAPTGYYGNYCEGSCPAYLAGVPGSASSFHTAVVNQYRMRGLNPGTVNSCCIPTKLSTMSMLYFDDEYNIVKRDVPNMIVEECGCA
Procedure: as §1

activin A [7] = biological target: T10, activin A (UniProt P08476 311-426); test: Biacore SPR
T10 sequence (looked up): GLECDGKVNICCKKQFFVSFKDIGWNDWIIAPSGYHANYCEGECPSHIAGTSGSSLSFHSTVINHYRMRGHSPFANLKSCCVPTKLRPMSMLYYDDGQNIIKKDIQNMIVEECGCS
Procedure: as §1

GDF11 [8] = biological target: T11, GDF11 (UniProt O95390 299-407); test: Biacore SPR
T11 construct: also called BMP11
T11 sequence (looked up): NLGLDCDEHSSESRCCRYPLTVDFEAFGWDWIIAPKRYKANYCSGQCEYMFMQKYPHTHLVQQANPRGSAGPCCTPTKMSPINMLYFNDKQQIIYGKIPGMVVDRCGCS
Procedure: as §1

GDF11 [9] = biological target: T11, GDF11; test: Biacore SPR; † very low signal
Procedure: as §1

activin AC = biological target: T12, activin AC (UniProt P08476 311-426; P55103 237-352); test: Biacore SPR
T12 sequence (looked up) 1: T10 sequence (looked up)
T12 sequence (looked up) 2: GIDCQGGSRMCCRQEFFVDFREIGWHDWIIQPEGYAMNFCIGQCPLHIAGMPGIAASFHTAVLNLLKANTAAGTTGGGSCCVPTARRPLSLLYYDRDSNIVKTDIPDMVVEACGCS
Procedure: as §1

BMP10 [10] = biological target: T4, BMP10; test: Biacore SPR; remark: listed apart in the source
Procedure: as §1

BMP7 [11] = biological target: T5, BMP7; test: Biacore SPR; remark: listed apart in the source
Procedure: as §1

activin A [12] = biological target: T10, activin A; test: Biacore SPR; remark: listed apart in the source
Procedure: as §1

GDF11 [13] = biological target: T11, GDF11; test: Biacore SPR; remark: listed apart in the source
Procedure: as §1

BMP6 [14] = biological target: T1, BMP6; test: Biacore SPR; remark: listed apart in the source
Procedure: as §1

activin AB [15] = biological target: T13, activin AB (UniProt P08476 311-426; P09529 293-407); test: Biacore SPR
T13 sequence (looked up) 1: T10 sequence (looked up)
T13 sequence (looked up) 2: T9 sequence (looked up)
Procedure: as §1

GDF11 [16] = biological target: T11, GDF11; test: Biacore SPR; † very low signal; remark: listed apart in the source
Procedure: as §1

BMP15 [17] = biological target: T2, BMP15; test: Biacore SPR; remark: listed apart in the source
Procedure: as §1

activin A [18] = biological target: T10, activin A; test: Biacore SPR; remark: listed apart in the source
Procedure: as §1

BMP9 [19] = biological target: T7, BMP9; test: Biacore SPR; remark: listed apart in the source
Procedure: as §1

activin AB [20] = biological target: T13, activin AB; test: Biacore SPR; remark: listed apart in the source
Procedure: as §1

off-rate ratio against ALK3-Fc homodimer (BMP6 [1]): ~10 fold | Kd (BMP15 [2]): 6 nM | koff (BMP15 [2]): 0.0055 s⁻¹ | kon (BMP15 [2]): 910000 M⁻¹ s⁻¹ | Kd (BMP2): 0.051 nM | koff (BMP2): 0.00015 s⁻¹ | kon (BMP2): 2.9e+06 M⁻¹ s⁻¹ | Kd (GDF6): 1.4 nM | koff (GDF6): 0.0019 s⁻¹ | kon (GDF6): 1.4e+06 M⁻¹ s⁻¹ | Kd (BMP10 [3]): 2.4 nM | koff (BMP10 [3]): 0.0016 s⁻¹ | kon (BMP10 [3]): 680000 M⁻¹ s⁻¹ | Kd (BMP7 [4]): 1 nM | koff (BMP7 [4]): 0.012 s⁻¹ | kon (BMP7 [4]): 1.2e+07 M⁻¹ s⁻¹ | Kd (BMP4): 0.1 nM | koff (BMP4): 9.1e-05 s⁻¹ | kon (BMP4): 910000 M⁻¹ s⁻¹ | binding result (BMP9 [5]): no binding | Kd (BMP5): 3.2 nM | koff (BMP5): 0.0014 s⁻¹ | kon (BMP5): 430000 M⁻¹ s⁻¹ | Kd (BMP6 [6]): 1.6 nM | koff (BMP6 [6]): 0.00059 s⁻¹ | kon (BMP6 [6]): 360000 M⁻¹ s⁻¹
B1: BMPRII-Fc:ALK3-Fc heterodimer (Fc fusion)
chain 1: SQNQERLCAFKDPYQQDLGIGESRISHENGTILCSKGSTCYGLWEKSKGDINLVKQGCWSHIGDPQECHYEECVVTTTPPSIQNGTYRFCCCSTDLCNVNFTENFPPPDTTPLSPPHSFNRDETGGGTHTCPPCPAPELLGGPSVFLFPPKPKDTLMISRTPEVTCVVVDVSHEDPEVKFNWYVDGVEVHNAKTKPREEQYNSTYRVVSVLTVLHQDWLNGKEYKCKVSNKALPAPIEKTISKAKGQPREPQVYTLPPSRKEMTKNQVSLTCLVKGFYPSDIAVEWESNGQPENNYKTTPPVLKSDGSFFLYSKLTVDKSRWQQGNVFSCSVMHEALHNHYTQKSLSLSPGK
chain 2: GAQNLDSMLHGTGMKSDSDQKKSENGVTLAPEDTLPFLKCYCSGHCPDDAINNTCITNGHCFAIIEEDDQGETTLASGCMKYEGSDFQCKDSPKAQLRRTIECCRTNLCNQYLQPTLPPVVIGPFFDGSIRTGGGTHTCPPCPAPELLGGPSVFLFPPKPKDTLMISRTPEVTCVVVDVSHEDPEVKFNWYVDGVEVHNAKTKPREEQYNSTYRVVSVLTVLHQDWLNGKEYKCKVSNKALPAPIEKTISKAKGQPREPQVYTLPPSREEMTKNQVSLTCLVKGFYPSDIAVEWESNGQPENNYDTTPPVLDSDGSFFLYSDLTVDKSRWQQGNVFSCSVMHEALHNHYTQKSLSLSPG
notes: C-terminal Lys optional; also called BMPRII-Fc:ALK3 heterodimer

binding result (activin B): no binding | Kd (activin A [7]): 20 nM | koff (activin A [7]): 0.012 s⁻¹ | kon (activin A [7]): 580000 M⁻¹ s⁻¹ | koff (GDF11 [8]): 0.0048 s⁻¹ | kon (GDF11 [8]): 5e+06 M⁻¹ s⁻¹ | Kd (GDF11 [9]): 0.97 nM | binding result (activin AC): no binding | binding result (BMP10 [10]): no binding | binding result (BMP7 [11]): no binding | Kd (activin A [12]): 20 nM | koff (activin A [12]): 0.012 s⁻¹ | kon (activin A [12]): 580000 M⁻¹ s⁻¹ | koff (GDF11 [13]): 0.0048 s⁻¹ | kon (GDF11 [13]): 5e+06 M⁻¹ s⁻¹ | binding result (BMP6 [14]): no binding | Kd (activin AB [15]): 2 nM | koff (activin AB [15]): 0.0036 s⁻¹ | kon (activin AB [15]): 1.8e+06 M⁻¹ s⁻¹ | Kd (GDF11 [16]): 0.97 nM | binding result (BMP15 [17]): no binding | Kd (activin A [18]): 20 nM | koff (activin A [18]): 0.012 s⁻¹ | kon (activin A [18]): 580000 M⁻¹ s⁻¹ | binding result (BMP9 [19]): no binding | Kd (activin AB [20]): 1.5 nM | koff (activin AB [20]): 0.0064 s⁻¹ | kon (activin AB [20]): 4.4e+06 M⁻¹ s⁻¹
B2: ALK4-Fc homodimer (Fc fusion, UniProt P36896 24-126, looked up, not shown: a dimerising Fc or GST)
chain: SGPRGVQALLCACTSCLQANYTCETDGACMVSIFNLDGMEHHVRTCIPKVELVPAGKPFYCLSSEDLRNTHCCYTDYCNRIDLRVPSGHLKEPEHPSMWGPVE
notes: extracellular domain
